According to patent US20130035289A1 (UNIVERSITE DE LIEGE, published 2013):

B1: Recombinant 16K N-terminal human prolactin (16K hPRL) (other, UniProt P01236 29-167, looked up)
chain: LPICPGGAARCQVTLRDLFDRAVVLSHYIHNLSSEMFSEFDKRYTHGRGFITKAINSCHTSSLATPEDKEQAQQMNQKDFLSLIVSILRSWNEPLYHLVTEVRGMQEAPEAILSKAVEIEEQTKRLLEGMELIVSQVHP
notes: domain: 16K N-terminal fragment; also called 16K PRL; 16K prolactin
B2: Recombinant 14K N-terminal human growth hormone (14K hGH) (other)
chain: MFPTIPLSRLFDNAMLRAHRLHQLAFDTYQEFEEAYIPKEQKYSFLQNPQTSLSFSESIPTPSNREETQQKSNLELLRISLLLIQSWLEPVQFLRSVFANSLVYGASDSNVYDLLKDLEEGIQTLMGRLEDGSP
notes: Produced in E. coli as in WO 98/51323; it is tied to the 14-16 kD fragments in general, not to the tested batch; also called 14K GH; r14K GH

What was measured:
[1] = biological target: T1, Recombinant wild type human Plasminogen Activator Inhibitor type 1 (PAI-1) (human, UniProt P05121 24-402); test: SPR (BIAcore 1000), 16K hPRL immobilized on CM5 chip, 25 C
T1 construct: In the yeast two-hybrid confirmation full-length human PAI-1 was cloned in pGADT7 (GAL4 prey fusion); also called recombinant wt PAI-1; rPAI-1

[2] = biological target: T2, PAI-1/uPA complex (human, UniProt P05121 24-402; P00749 21-431, limits assumed); test: SPR (BIAcore 1000), 16K hPRL immobilized on CM5 chip, PAI-1 pre-incubated with uPA, 25 C
T2 construct: For SPR formed by incubating PAI-1 (2 uM) and uPA (1.4 uM) for 10 min at 37 C before loading; also called uPA/PAI-1; uPA-PAI-1 complex

[3] = biological target: T1, Recombinant wild type human Plasminogen …; test: SPR (BIAcore 1000), PAI-1 immobilized on CM5 chip, 25 C
[4] = biological target: T3, urokinase-type plasminogen activator (uPA) (UniProt P00749 21-431, limits assumed); test: immunoprecipitation with uPA without PAI-1, Western blot for 16K PRL
[5] = biological target: T3, urokinase-type plasminogen activator …; test: immunoprecipitation with uPA without PAI-1, Western blot for 14K GH

Binder	Kd [1] [nM]	Kd [2] [nM]	Kd [3] [nM]	binding result [4]	binding result [5]
B1	580	150	600	no binding	
B2			1000		no binding
